Experimental data published in patent US20090143319, “Transcription factor decoy” (AnGesMG, Inc., published 2009).

B1: SEQ-45 (dsDNA)
DNA 1: CCTTGAAGGGATTTCCCTCC
DNA 2: GGAGGGAAATCCCTTCAAGG
modifications: PS (*): C*C*TTGAAGGGATTTCCCT*C*C / 3'-G*G*…*A*A*GGGA*G*G
B2: SEQ-19 (dsDNA)
DNA 1: CCTTGAGGGGATTTCCCC
DNA 2: GGGGAAATCCCCTCAAGG
B3: SEQ-14 (dsDNA)
DNA 1: AGGGGATTTCCCC
DNA 2: GGGGAAATCCCCT
B4: SEQ-34 (dsDNA)
DNA 1: GAGGGGATTTCCCC
DNA 2: GGGGAAATCCCCTC
modifications: PS (*): G*A*GGGGATTT*C*CCC / antisense 5'-G*GGGAAA*T*C*CCCTC
B5: SEQ-27 (dsDNA)
DNA 1: GGGGATTTCCCCCC
DNA 2: GGGGGGAAATCCCC
B6: SEQ-21 (dsDNA)
DNA 1: AGGGGATTTCCCCC
DNA 2: GGGGGAAATCCCCT
B7: SEQ-K (dsDNA)
DNA 1: AGTTGAAGGGATTTCCCTAGGC
DNA 2: GCCTAGGGAAATCCCTTCAACT
B8: SEQ-38 (dsDNA)
DNA 1: TTGAGGGGATTTCCCC
DNA 2: GGGGAAATCCCCTCAA
modifications: PS (*): TTG*A*GGGGATTT*C*CCC / antisense 5'-GGGGAAA*T*C*CCCTCAA
B9: SEQ-33 (dsDNA)
DNA 1: GAGGGGATTTCCCC
DNA 2: GGGGAAATCCCCTC
modifications: PS (*): G*A*GGGGATTT*C*CCC / antisense 5'-GGGGAAA*T*C*CCCTC
B10: SEQ-22 (dsDNA)
DNA 1: GAGGGGATTTCCCCC
DNA 2: GGGGGAAATCCCCTC
B11: SEQ-15 (dsDNA)
DNA 1: GAGGGGATTTCCCC
DNA 2: GGGGAAATCCCCTC
B12: SEQ-L (dsDNA)
DNA 1: CCTTGAGGGGACTTTCCCCC
DNA 2: GGGGGAAAGTCCCCTCAAGG
B13: SEQ-25 (dsDNA)
DNA 1: CTTGAGGGGATTTCCCCC
DNA 2: GGGGGAAATCCCCTCAAG
B14: SEQ-16 (dsDNA)
DNA 1: TGAGGGGATTTCCCC
DNA 2: GGGGAAATCCCCTCA
B15: SEQ-23 (dsDNA)
DNA 1: TGAGGGGATTTCCCCC
DNA 2: GGGGGAAATCCCCTCA
B16: SEQ-46 (dsDNA)
DNA 1: CCTTGAAGGGACTTTCCTCC
DNA 2: GGAGGAAAGTCCCTTCAAGG
modifications: PS at 2 bonds at each end of both strands
B17: SEQ-M (dsDNA)
DNA 1: ACCAAGGGATTTCCCTGTCCCAC
DNA 2: GTGGGACAGGGAAATCCCTTGGT
B18: SEQ-32 (dsDNA)
DNA 1: CTTGAGGGGATTTCCCCCC
DNA 2: GGGGGGAAATCCCCTCAAG
B19: SEQ-20 (dsDNA)
DNA 1: GGGGATTTCCCCC
DNA 2: GGGGGAAATCCCC
B20: SEQ-26 (dsDNA)
DNA 1: CCTTGAGGGGATTTCCCCC
DNA 2: GGGGGAAATCCCCTCAAGG
B21: SEQ-18 (dsDNA)
DNA 1: CTTGAGGGGATTTCCCC
DNA 2: GGGGAAATCCCCTCAAG
B22: SEQ-29 (dsDNA)
DNA 1: GAGGGGATTTCCCCCC
DNA 2: GGGGGGAAATCCCCTC
B23: SEQ-31 (dsDNA)
DNA 1: TTGAGGGGATTTCCCCCC
DNA 2: GGGGGGAAATCCCCTCAA
B24: SEQ-49 (dsDNA)
DNA 1: CCTTGAAGGGACTTTCCTCC
DNA 2: GGAGGAAAGTCCCTTCAAGG
modifications: PS (*): C*C*TTGAAGGGACTTTCCT*C*C / 3'-G*G*…*G*A*AAGGA*G*G
B25: SEQ-35 (dsDNA)
DNA 1: GAGGGGATTTCCCC
DNA 2: GGGGAAATCCCCTC
modifications: PS (*): G*A*GGGGATTT*C*CCC / antisense 3'-CTCCC*C*T*AAAG*G*GGG (so in the source)
B26: SEQ-17 (dsDNA)
DNA 1: TTGAGGGGATTTCCCC
DNA 2: GGGGAAATCCCCTCAA
B27: SEQ-9 (dsDNA)
DNA 1: CCTTGAGGGGATTTCCCCCC
DNA 2: GGGGGGAAATCCCCTCAAGG
modifications: PS (*): C*C*TTG*A*GGGGATTT*C*CCCCC / antisense 5'-G*G*GGGGAAA*T*C*CCCTCAAGG
B28: SEQ-37 (dsDNA)
DNA 1: TTGAGGGGATTTCCCC
DNA 2: GGGGAAATCCCCTCAA
modifications: PS (*): T*T*G*A*GGGGATTT*C*CCC / antisense 5'-G*G*GGAAA*T*C*CCCTCAA
B29: SEQ-40 (mixed)
DNA: CCTTGAGGGGATTTCCCCCC
mixed: GGGGGGAAATCCCCUCAAGG
modifications: LNA/RNA marked by bold/italic, positions not recoverable from text
B30: SEQ-36 (dsDNA)
DNA 1: TTGAGGGGATTTCCCC
DNA 2: GGGGAAATCCCCTCAA
modifications: PS (*): T*TG*A*GGGGATTT*C*CCC / antisense 5'-G*GGGAAA*T*C*CCCTCAA
B31: SEQ-28 (dsDNA)
DNA 1: AGGGGATTTCCCCCC
DNA 2: GGGGGGAAATCCCCT
B32: SEQ-24 (dsDNA)
DNA 1: TTGAGGGGATTTCCCCC
DNA 2: GGGGGAAATCCCCTCAA
B33: SEQ-30 (dsDNA)
DNA 1: TGAGGGGATTTCCCCCC
DNA 2: GGGGGGAAATCCCCTCA
B34: SEQ-48 (dsDNA)
DNA 1: CCTTGAAGGGACTTTCCTCC
DNA 2: GGAGGAAAGTCCCTTCAAGG
modifications: PS (*): C*C*TTGAAGGGACTTTCCT*C*C / 3'-G*G*AACTTCC*C*T*GAAAGGA*G*G
B35: SEQ-13 (dsDNA)
DNA 1: GGGGATTTCCCC
DNA 2: GGGGAAATCCCC
B36: SEQ-47 (dsDNA)
DNA 1: CCTTGAAGGGACTTTCCTCC
DNA 2: GGAGGAAAGTCCCTTCAAGG
modifications: PS (*): C*C*TTGAAGGGACTTTCCT*C*C / 3'-G*G*AAC*T*T*…*G*G
B37: SEQ-44 (dsDNA)
DNA 1: CCTTGAAGGGATTTCCCTCC
DNA 2: GGAGGGAAATCCCTTCAAGG
modifications: PS (*): C*C*TTGAAGGGATTTCCCT*C*C / 3'-G*G*AA*C*T*…*G*G

Molecular target: T1, NF-kB p65 (RelA) (UniProt Q04206 Q04206:1-551)
Experiment: competition; 0.16 relative to SEQ-X-PS (Table 7)
Conditions: protein: extract; tags: native, Jurkat nuclear extract (TransAM NF-kB p65 kit, Active Motif)
Description: (§1) Complete Lysis Buffer, Complete Binding Buffer, 1× Wash Buffer and 1× Antibody Binding Buffer are prepared. […] Jurkat nuclear extract was diluted with Complete Lysis Buffer to a concentration of 125 μg protein/mL.
(§2) To each of the wells in a plate included in the kit, on which a NF-κB-binding nucleic acid is preliminarily immobilized, 30 μL each of the NF-κB Decoy Oligonucleotide Dilution prepared in (1) described above is added. To the wells of the blank and control, 30 μL each of Complete Binding Buffer was added. Then 20 μL each of the above-described Jurkat nuclear extract was added to each well. To each of the wells of the blank and control, 20 μL each of Complete Lysis Buffer was added. After shaking the plate at room temperature for 1 hour, each well was washed with 200 μL of 1× Wash Buffer 3 times, and 100 μL each of rabbit anti-NF-κB p65 antibody 1000-fold diluted with 1× Antibody Binding Buffer was added, followed by shaking the plate at room temperature for 1 hour. […] The percentage of the absorbance of each NF-κB decoy oligonucleotide at each of the concentrations was calculated taking the ratio of absorbances of the well of control as 100, and IC₅₀ of each decoy oligonucleotide was calculated from the approximate curve obtained by plotting the mean values of the above-mentioned percent absorbance.

T1 sequence (Q04206 whole entry, one chain of several): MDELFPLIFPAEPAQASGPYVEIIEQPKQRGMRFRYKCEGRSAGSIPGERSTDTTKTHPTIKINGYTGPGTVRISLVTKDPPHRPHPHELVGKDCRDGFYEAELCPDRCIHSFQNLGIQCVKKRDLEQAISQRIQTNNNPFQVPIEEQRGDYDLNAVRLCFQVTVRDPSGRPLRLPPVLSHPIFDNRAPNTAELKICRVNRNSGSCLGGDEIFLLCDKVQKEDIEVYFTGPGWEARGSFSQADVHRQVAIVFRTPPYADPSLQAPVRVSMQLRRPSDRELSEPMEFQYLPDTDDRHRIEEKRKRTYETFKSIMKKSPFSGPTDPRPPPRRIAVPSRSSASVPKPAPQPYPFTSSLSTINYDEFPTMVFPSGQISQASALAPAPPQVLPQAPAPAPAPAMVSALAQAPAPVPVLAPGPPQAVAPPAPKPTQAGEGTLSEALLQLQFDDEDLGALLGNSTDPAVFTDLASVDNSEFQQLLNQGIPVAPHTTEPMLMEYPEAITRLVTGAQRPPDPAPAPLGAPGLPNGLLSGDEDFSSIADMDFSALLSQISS

Binder	binding signal
B1	1.43 IC50 ratio to SEQ-x

Molecular target: T1, NF-kB p65 (RelA)
Experiment: competition
Conditions: protein: extract; tags: native, Jurkat nuclear extract (TransAM NF-kB p65 kit, Active Motif)
Description: as §1
as §2, with “hour. Thereafter, each well was washed with 200 μL of 1× Wash Buffer 3 times, and 100 μL each of HRP-labeled anti-rabbit IgG antibody 1000-fold diluted with 1× Antibody Binding Buffer was added to each well, followed by shaking the plate at room temperature for 1 hour. Thereafter, each well was washed with 200 μL each of 1× Wash Buffer 4 times, and 100 μL each of Developing Solution was added, followed by allowing coloring reaction in a dark room for 5 minutes. After the reaction, the coloring reaction was stopped by adding 100 μL each of Stop Solution.” for “hour.”

Binder	binding signal
B2	0.26 IC50 ratio to SEQ-I
B3	1.39 IC50 ratio to SEQ-I
B4	0.014 IC50 ratio to SEQ-x
B5	> 2.2 IC50 ratio to SEQ-I
B6	2.07 IC50 ratio to SEQ-I
B7	> 1.48 IC50 ratio to SEQ-x
B8	0.011 IC50 ratio to SEQ-x
B9	0.021 IC50 ratio to SEQ-x
B10	1.09 IC50 ratio to SEQ-I
B11	0.61 IC50 ratio to SEQ-I
B12	0.66 IC50 ratio to SEQ-x
B13	0.41 IC50 ratio to SEQ-I
B14	0.42 IC50 ratio to SEQ-I
B15	0.69 IC50 ratio to SEQ-I
B16	> 1.67 IC50 ratio to SEQ-x
B17	> 1.48 IC50 ratio to SEQ-x
B18	0.76 IC50 ratio to SEQ-I
B19	> 3.45 IC50 ratio to SEQ-I

Binder	binding signal
B20	0.43 IC50 ratio to SEQ-I
B21	0.28 IC50 ratio to SEQ-I
B22	2.17 IC50 ratio to SEQ-I
B23	0.84 IC50 ratio to SEQ-I
B24	0.19 IC50 ratio to SEQ-x
B25	0.015 IC50 ratio to SEQ-x
B26	0.3 IC50 ratio to SEQ-I
B27	0.02 IC50 ratio to SEQ-x
B28	0.015 IC50 ratio to SEQ-x
B29	> 2.93 IC50 ratio to SEQ-x
B30	0.012 IC50 ratio to SEQ-x
B31	> 2.2 IC50 ratio to SEQ-I
B32	0.52 IC50 ratio to SEQ-I
B33	1.24 IC50 ratio to SEQ-I
B34	0.2 IC50 ratio to SEQ-x
B35	> 2.87 IC50 ratio to SEQ-I
B36	0.72 IC50 ratio to SEQ-x

Molecular target: T1, NF-kB p65 (RelA)
Experiment: competition; 0.60 relative to SEQ-X-PS (Table 7)
Conditions: protein: extract; tags: native, Jurkat nuclear extract (TransAM NF-kB p65 kit, Active Motif)
Description: as §1, §2

Binder	binding signal
B37	> 1.67 IC50 ratio to SEQ-x
